Assay results from publication PMC10739146.

Assays:
[1] = anti-HA immunoblot of total lysate; conditions: glycan lost; control: wild type Rim21
[2] = cycloheximide chase, immunoblot, ± alkali; conditions: glycan lost; control: wild type Rim21
[3] = stepwise centrifugation P13/P100/S100, immunoblot; conditions: glycan lost; control: wild type Rim21-HA
[4] = GFP fluorescence microscopy with mRFP-Snc1(pm) marker; conditions: glycan lost; control: wild type Rim21-2GFP

B1: Rim21: N15Q (protein)
parent chain: MNLWRHSPEELAAYNSCHPMKLGSGVLIQLPLYDNSAVYAEDITFRSFCCERVPVYVSTVLRNSSPYRYLDEVINDWQKFIQVSDYVGGSAEYAIYAVILSITSNFVITVFLTVICCINISGRAYKRILQLLRIASLLASLNLTIFITKVLRRLEKEHNVYGVVRAHSIMHIFSDDMTFVVLDFLATLMFQFCQVGIVIRLFQRAQEKRIIFFIGVILTITANILWVIPPFANHTTKHRNDWQILRPFVYLFRIAIATSYASIVIYHIWQKKKLWFKFNQMGLLTLLTILVVLLLPGFFLADVSNLWISELGEVFNTTCYVTSTVITWEWLDRLNVLERKEEAQSILGRPIFEEEQQDYRFAKYALRVQNALTRRESQDASTDRHDTSSNSEVCDLQTISRYDPEDQISVGRSIDRMHFNDRGTYKDVALKKLGYARDKILYFTDQIVQKSVGHNNSSSSKNEKTKQRKAMVRKRLGLDKPGIYIYSTKDVVFNSDEDDDENAEDEDDDEYEVGSEGNNNSSATFTSDHIGHI
[1]
  expression_or_secretion: increases
[2]
  degradation_or_half_life: increases
[3]
  localisation_or_trafficking: changes
[4]
  localisation_or_trafficking: no change
